The results in this text go back to patent publication US20200199567A1, “METHODS FOR SELECTION AND EXPANSION OF T CELLS EXPRESSING PD-1” (MEDIMMUNE, LLC, priority 2018, published 2020).

For data set [1], the system named is PD-1 expression in peripheral blood. The experiment in a line: PD-1 expression in peripheral blood after anti-CTLA-4 pre-treatment, Taqman qRT-PCR. It counts as in vivo, human. As to the method: The effect of anti-CTLA-4 antibody (tremelimumab) pre-treatment on PD-1 expression in peripheral blood was tested by Taqman qRT-PCR.
For another data set, the target named is PD-1 (Homo sapiens, UniProt Q15116). Kind of data set: Binding affinity of anti-PD-1 antibody.
Another data set concerns PD-1 expressing T cells. Kind of data set: Magnetic bead enrichment (selection) of PD-1 expressing T cells with biotinylated anti-PD-1 antibody. It counts as cell-based, human. The note with it: 4° C. The protocol:
Donor blood was obtained in the form of human peripheral blood through standard leukapheresis or blood draw protocols. The red blood cells were removed from the donor blood by centrifugation protocols known in the art. Briefly, the peripheral blood was centrifuged, the supernatant discarded, the pellet was resuspended in ammonium chloride potassium (ACK) buffer, the ACK pellet suspension was incubated at room temperature, and the cells were washed twice in wash buffer to produce a cell pellet.
Enrichment of the PD-1 expressing cells was then performed. The washed cell pellet was resuspended in wash buffer and cell count determined. Wash buffer was added to bring the cell density to 100×10^6 cells per mL. 1 μg/mL MEDI3097 antibody was added to the cells to produce an antibody-cell mixture comprising cells and MEDI3097 antibody. The antibody mixture was incubated at 4° C. for 15 minutes and then centrifuged and washed twice with wash buffer. Wash buffer was added to bring cell density to 125×10^6 cells per mL. Anti-biotin beads were then added to the cells at a concentration of 2 mL beads per 1 billion cells to produce a bead mixture. […]
Enrichment of PD-1 expressing T cells was performed after red blood cells were removed from leukapheresis products. The washed cell pellet was resuspended in wash buffer and cell count determined. […]

Sequence of PD-1 (Q15116 25-288): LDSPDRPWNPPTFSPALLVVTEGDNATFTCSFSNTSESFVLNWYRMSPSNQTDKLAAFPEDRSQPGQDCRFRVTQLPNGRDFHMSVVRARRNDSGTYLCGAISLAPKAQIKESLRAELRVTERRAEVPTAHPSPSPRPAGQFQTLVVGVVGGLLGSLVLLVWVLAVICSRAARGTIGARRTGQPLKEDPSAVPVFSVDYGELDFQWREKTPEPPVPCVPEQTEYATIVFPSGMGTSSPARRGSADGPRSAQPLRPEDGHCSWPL

Turning to tremelimumab: anti-CTLA-4 antibody, the “overall survival (OS) of patients with induced PD-1 expression” value in data set [1] (high responder group versus <1.5 fold group, clinical trial NTC02527434) is recorded as “improved overall survival”. The “increase PD-1 expression in peripheral blood” value in data set [1] (in a group of patients, after 9-10 days) is more than 1.5 fold.

B1: MEDI0680: anti-PD-1 antibody (antibody, V domains shown)
VH: EVQLVESGGGLVQPGGSLRLSCAASGFTFSDYGMHWVRQAPGKGLEWVAYISSGSYTIYSADSVKGRFTISRDNAKNTLYLQMSSLRAEDTAVYYCARRGYGSFYEYYFDYWGQGTTVTVSS
VL: QIVLTQSPATLSLSPGERATLSCSASSSVSYMYWYQQKPGQAPRLLIYLTSNRATGIPARFSGSGSGTDYSSTLTISSLEPEDFAVYYCQQWSSNPFTFGQGTKLEIK
In the case of B1, the binding affinity result in the data set with PD-1 was “low binding affinity”. The “antibody concentration at which impact on PD-1 expression level plateaued” value with PD-1 expressing T cells was “around 5.0 μg/mL”.

B2: LO115: anti-PD-1 antibody (antibody)
heavy: EVQLVESGGGLVQPGGSLRLSCAASGFTFSDYGMHWVRQAPGKGLEWVAYISSGSYTIYSADSVKGRFTISRDNAKNSLYLQMNSLRAEDTAVYYCARRAPNSFYEYYFDYWGQGTTVTVSSASTKGPSVFPLAPSSKSTSGGTAALGCLVKDYFPEPVTVSWNSGALTSGVHTFPAVLQSSGLYSLSSVVTVPSSSLGTQTYICNVNHKPSNTKVDKRVEPKSCDKTHTCPPCPAPEFEGGPSVFLFPPKPKDTLMISRTPEVTCVVVDVSHEDPEVKFNWYVDGVEVHNAKTKPREEQYNSTYRVVSVLTVLHQDWLNGKEYKCKVSNKALPASIEKTISKAKGQPREPQVCTLPPSREEMTKNQVSLSCAVKGFYPSDIAVEWESNGQPENNYKTTPPVLDSDGSFFLVSKLTVDKSRWQQGNVFSCSVMHEALHNHYTQKSLSLSPGK
light: QIVLTQSPATLSLSPGERATLSCSASSKHTNLYWSRHMYWYQQKPGQAPRLLIYLTSNRATGIPARFSGSGSGTDFTLTISSLEPEDFAVYYCQQWSSNPFTFGQGTKLEIKRTVAAPSVFIFPPSDEQLKSGTASVVCLLNNFYPREAKVQWKVDNALQSGNSQESVTEQDSKDSTYSLSSTLTLSKADYEKHK
On to B2, for which the binding affinity entry in the data set with PD-1 was “high binding affinity”.
